Measurements published in patent US20170306018A1 (Bristol-Myers Squibb, published 2017).
Several values for one entry are separate records, joined by “and”; a condition that tells them apart may be missing. Identical values can stand only once.

Columns and labels:
human CD3ε = target: T1, human CD3ε (human, UniProt P07766 23-207); experiment: flow cytometry on Jurkat T cells
T1 construct: whole, on cells; CD3 on human leukemic Jurkat T cells, as part of the TCR/CD3 complex; also called CD3 epsilon
Method: Anti-ROR1/anti-CD3 T cell bispecific antibodies generated in Example 5 were analyzed by flow cytometry for their binding to human ovarian cancer cell lines PA-1 and SK-OV-3 and human CD3 expressed on human leukemic T cells Jurkat (ATCC TIB-152). Jurkat T cells were cultured in RPMI1640 medium supplemented with 10% fetal calf serum. Briefly, cultured cells were harvested, counted and cell viability is evaluated using ViCell. Viable cells were then adjusted to 2×10⁶ cells per ml in FACS Stain Buffer (BD Biosciences) containing 0.1% BSA. 100 μl of this cell suspension were further aliquoted per well into a round-bottom 96-well plate. […] After incubation for 30 min at 4° C., cells are centrifuged (5 min, 350×g), washed twice with 150 μl/well BSA-containing FACS Stain Buffer (BD Biosciences), then cells are fixed using 100 ul BD Fixation buffer per well (#BD Biosciences, 554655) at 4° C. for 20 min, resuspended in 120 μl FACS buffer and analyzed using BD FACS CantoII. Binding of the anti-ROR1/anti-CD3 T cell bispecific antibodies to human ovarian cancer cells and T cells were evaluated and the median fluorescence intensity was determined gated on either human ovarian cancer cells or CD3-expressing Jurkat T cells and plotted in histograms and dot plots. […] Median fluorescence intensity for anti-ROR1/anti-CD3 T cell bispecific antibodies in function of antibody concentrations were plotted.

human ROR1 [1] = target: T2, human ROR1 (human, UniProt Q01973 30-937); experiment: flow cytometry on PA-1 cells
T2 construct: Endogenous ROR1 on primary B-CLL cells, RPMI8226, Rec-1, SK-OV-3 and PA-1 cells; also called tyrosine-protein kinase transmembrane receptor ROR1; neurotrophic tyrosine kinase, receptor-related 1
Method: (§1) a) The level of expression of ROR1 was measured on human ovarian cancer cell lines by flow cytometry including PA-1, COLO-704, ES-2, SK-OV-3, and OVCAR-5. Briefly, cells were harvested, washed, counted for viability, resuspended at 50,000 cells/well of a 96-well round bottom plate and incubated with Alexa488-labeled anti human ROR1 antibody for 30 min at 4° C. All ROR1 and isotype control antibodies were titrated and analyzed in final concentration range between 0.01-100 nM (0.0015-15 μg/mL). […] At the end of incubation time, cells were centrifuged (5 min at 350×g), washed twice with FACS buffer, resuspended in 100 ul FACS buffer and analyzed on a CantoII device running FACS Diva software. Expression of ROR1 was then quantified as the median fluorescence intensity (MFI) and graphs showing the MFI in function of ROR1 antibody concentrations were plotted. EC50 values were then measured using Prism software (GraphPad). […] The calculated EC50s for binding of ROR1 Mab1 and ROR1 Mab2 to SK-OV-3 are extrapolated values and may be over- or underestimated. […]

human ROR1 [2] = target: T2, human ROR1; experiment: flow cytometry on SK-OV-3 cells (extrapolated value)
Method: as §1

human ROR1 [3] = target: T2, human ROR1; experiment: flow cytometry on RPMI8226 cells
Method: a) ROR1 expression was assessed on primary CD19⁺ CD5⁺ CLL cells by flow cytometry. Briefly, cells were harvested, washed, counted for viability, resuspended at 50 000 cells/well of a 96-well round bottom plate and incubated with Alexa488-labeled anti human ROR1 antibody at 10 μg/ml for 30 min at 4° C. (to prevent internalization). At the end of incubation time, cells were centrifuged (5 min at 350×g), washed twice with FACS buffer, resuspended in 100 ul FACS buffer and analyzed on a CantoII device running FACS Diva software.
b) ROR1 expression was then assessed on B lymphocyte myeloma RPMI8226 cell lines by flow cytometry, using the methods described above.

human ROR1 [4] = target: T2, human ROR1; experiment: cell-based or functional assay

T2 sequence (Q01973 30-937 limits assumed): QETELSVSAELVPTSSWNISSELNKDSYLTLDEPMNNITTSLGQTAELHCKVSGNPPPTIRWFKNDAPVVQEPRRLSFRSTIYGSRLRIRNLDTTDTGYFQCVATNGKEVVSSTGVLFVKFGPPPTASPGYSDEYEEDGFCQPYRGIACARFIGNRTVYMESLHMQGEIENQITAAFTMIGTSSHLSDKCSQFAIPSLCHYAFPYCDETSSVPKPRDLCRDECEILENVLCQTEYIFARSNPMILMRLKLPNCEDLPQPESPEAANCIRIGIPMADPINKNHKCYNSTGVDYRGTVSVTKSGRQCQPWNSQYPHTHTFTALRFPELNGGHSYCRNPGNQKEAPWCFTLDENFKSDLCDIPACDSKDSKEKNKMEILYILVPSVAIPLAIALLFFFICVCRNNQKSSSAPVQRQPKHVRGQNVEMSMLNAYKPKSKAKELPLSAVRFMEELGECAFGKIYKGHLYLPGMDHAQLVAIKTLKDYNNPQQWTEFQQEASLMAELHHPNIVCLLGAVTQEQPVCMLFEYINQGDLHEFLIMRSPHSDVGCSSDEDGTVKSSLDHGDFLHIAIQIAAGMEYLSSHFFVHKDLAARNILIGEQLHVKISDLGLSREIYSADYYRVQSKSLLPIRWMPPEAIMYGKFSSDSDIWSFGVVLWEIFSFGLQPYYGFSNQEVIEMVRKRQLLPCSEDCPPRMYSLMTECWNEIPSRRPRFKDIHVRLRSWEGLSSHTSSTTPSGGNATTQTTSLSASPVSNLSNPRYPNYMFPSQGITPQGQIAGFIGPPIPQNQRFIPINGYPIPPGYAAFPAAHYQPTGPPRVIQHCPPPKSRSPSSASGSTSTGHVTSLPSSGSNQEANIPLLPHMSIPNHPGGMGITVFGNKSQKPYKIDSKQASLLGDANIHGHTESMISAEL
T1 sequence (P07766 23-207): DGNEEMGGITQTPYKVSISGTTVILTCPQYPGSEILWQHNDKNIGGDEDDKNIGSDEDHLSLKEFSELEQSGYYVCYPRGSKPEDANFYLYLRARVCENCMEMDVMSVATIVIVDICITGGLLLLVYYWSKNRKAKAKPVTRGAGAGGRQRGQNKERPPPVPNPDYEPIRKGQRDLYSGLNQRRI

B1: anti-ROR1 IgG1 antibody (ROR1 Mab1) (antibody, V domains shown)
VH: QEQLVESGGRLVTPGGSLTLSCKASGFDFSAYYMSWVRQAPGKGLEWIATIYPSSGKTYYATWVNGRFTISSDNAQNTVDLQMNSLTAADRATYFCARDSYADDGALFNIWGPGTLVTISS
VL: ELVLTQSPSVSAALGSPAKITCTLSSAHKTDTIDWYQQLQGEAPRYLMQVQSDGSYTKRPGVPDRFSGSSSGADRYLIIPSVQADDEADYYCGADYIGGYVFGGGTQLTVTG
notes: Used Alexa488-labelled in some assays; also called anti-ROR1 antibody; anti-ROR1 IgG antibody
- binding result (human CD3ε): no binding (tested: 3 nM to 500 nM)
- EC50 (human ROR1 [1]): 0.87 nM and 0.13 µg/mL
- EC50 (human ROR1 [2]): ~4.62 nM and ~0.69 µg/mL
- EC50 (human ROR1 [3]): 0.087 nM and 0.013 µg/mL

B2: ROR1 Mab2 IgG (antibody, V domains shown)
VH: EVKLVESGGGLVKPGGSLKLSCAASGFTFSSYAMSWVRQIPEKRLEWVASISRGGTTYYPDSVKGRFTISRDNVRNILYLQMSSLRSEDTAMYYCGRYDYDGYYAMDYWGQGTSVTVSS
VL: DIKMTQSPSSMYASLGERVTITCKASPDINSYLSWFQQKPGKSPKTLIYRANRLVDGVPSRFSGGGSGQDYSLTINSLEYEDMGIYYCLQYDEFPYTFGGGTKLEMK
notes: Tested as IgG; also called Mab 4A5
- EC50 (human ROR1 [1]): 0.095 µg/mL and 0.64 nM
- EC50 (human ROR1 [2]): ~358 nM and ~53.4 µg/mL

B3: ROR1 Mab2-TCBcv (bispecific antibody)
heavy 1: not shown
heavy 2: EVKLVESGGGLVKPGGSLKLSCAASGFTFSSYAMSWVRQIPEKRLEWVASISRGGTTYYPDSVKGRFTISRDNVRNILYLQMSSLRSEDTAMYYCGRYDYDGYYAMDYWGQGTSVTVSSASTKGPSVFPLAPSSKSTSGGTAALGCLVEDYFPEPVTVSWNSGALTSGVHTFPAVLQSSGLYSLSSVVTVPSSSLGTQTYICNVNHKPSNTKVDEKVEPKSCDKTHTCPPCPAPEAAGGPSVFLFPPKPKDTLMISRTPEVTCVVVDVSHEDPEVKFNWYVDGVEVHNAKTKPREEQYNSTYRVVSVLTVLHQDWLNGKEYKCKVSNKALGAPIEKTISKAKGQPREPQVCTLPPSRDELTKNQVSLSCAVKGFYPSDIAVEWESNGQPENNYKTTPPVLDSDGSFFLVSKLTVDKSRWQQGNVFSCSVMHEALHNHYTQKSLSLSPGK
light 1: DIKMTQSPSSMYASLGERVTITCKASPDINSYLSWFQQKPGKSPKTLIYRANRLVDGVPSRFSGGGSGQDYSLTINSLEYEDMGIYYCLQYDEFPYTFGGGTKLEMKRTVAAPSVFIFPPSDRKLKSGTASVVCLLNNFYPREAKVQWKVDNALQSGNSQESVTEQDSKDSTYSLSSTLTLSKADYEKHKVYACEVTHQGLSSPVTKSFNRGEC
light 2: EVQLLESGGGLVQPGGSLRLSCAASGFTFSTYAMNWVRQAPGKGLEWVSRIRSKYNNYATYYADSVKGRFTISRDDSKNTLYLQMNSLRAEDTAVYYCVRHGNFGNSYVSWFAYWGQGTLVTVSSASVAAPSVFIFPPSDEQLKSGTASVVCLLNNFYPREAKVQWKVDNALQSGNSQESVTEQDSKDSTYSLSSTLTLSKADYEKHKVYACEVTHQGLSSPVTKSFNRGEC
notes: 2+1 TCB with charge variants, bivalent for ROR1 (Mab2) and monovalent for CD3; The chain set is printed under the name Mab2 ROR1-TCB (2+1); also called Mab2 ROR1-TCBcv; Mab2 ROR1-TCB (2+1)
- binding result (human CD3ε): binds
- Mean EC50 (ng/mL), cell lysis of COLO-704 (n = 1), LDH release (human ROR1 [4]): 14.3 ng/mL
- Mean EC50 (ng/mL), cell lysis of OVCAR-5 (n = 1), LDH release (human ROR1 [4]): 10.7 ng/mL
- Mean EC50 (ng/mL), cell lysis of PA-1 (n = 2), LDH release (human ROR1 [4]): 2.9 ng/mL
- Mean EC50 (ng/mL), cell lysis of SKOV-3 (n = 5), LDH release (human ROR1 [4]): 141 ng/mL
- Mean EC50 (pM), cell lysis of COLO-704 (n = 1), LDH release (human ROR1 [4]): 73.3 pM
- Mean EC50 (pM), cell lysis of OVCAR-5 (n = 1), LDH release (human ROR1 [4]): 53.4 pM
- Mean EC50 (pM), cell lysis of PA-1 (n = 2), LDH release, PBMC E:T 10:1 (human ROR1 [4]): 14.6 pM
- Mean EC50 (pM), cell lysis of SKOV-3 (n = 5), LDH release (human ROR1 [4]): 707 pM
